The nanobody polyreactivity screen of Harvey et al. (2022)

Test: yeast display, Sf9 membrane polyspecificity reagent, FACS + sequencing; frameworks hold sequencing errors
In short: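 A nanobody's polyreactivity label depends on the gate it was sorted from. Yeast display cells were stained with 10% biotinylated, detergent-solubilized Sf9 membrane reagent for 1 hour at 4 °C, enriched on streptavidin microbeads and sorted by FACS. The low and high (top ~1%) gates were set on anti-HA fluorescence for expression and streptavidin fluorescence for reagent binding.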

QVQLVESGGGLVQAGGSLRLSCAASGYIFFGNAMGWYRQAPGKERELVAAIRWRGTSTYYADSVKGRFTISRDNAKNTVYLQMNSLKPEDTAVYYCAADVVRYNFYGTFLYDYDYWGQGTQVTVSS
polyreactivity (PSR sort gate): low polyreactivity

QVQLVESGGGLVQAGGSLRLSCAASGFTLSRYAMGWYRQAPGKERELVAAIRWSGGSTYYADSVKGRFTISRDNEKNTVYLQMNSLKPEDTAVYYCATRRSGYYSFYYWGQGTQVTGSS
polyreactivity (PSR sort gate): high polyreactivity

QVQLVESGGGLVQAGGSLRLSCAASGRIFPRYAMGWYRQAPGKERELVAAITTGGSTYADSVKGRFTISRDNAKNTVYLQMNSLKPEDTAVYYCAKRDSNKRDYWGQGTQVTVSS
polyreactivity (PSR sort gate): low polyreactivity

QVQLVESGGGLVQAGGSLRLSSAASGFTFSLYRMGWYRQAPGKERELVASISNRGGTFYADSVKGRFTISRDNAKNTVYVQMNSLKPEETAVYYCARKTYYTGDFLGREYGYWGQGPQVTVSS
polyreactivity (PSR sort gate): low polyreactivity

QVQLVESGGRLVQAGGSLRLSCAASGSTLYAYAMGWYRPAPGKERELVAAIRTGGSTYYADSVNGRFTISRDNAKNTVYLQMNSLKPEDTAVYYCAADHGYQYGYWGQGTQVTVSS
polyreactivity (PSR sort gate): low polyreactivity

QVQLVESGGGLLQAGGSLRLSCAASGSTFHRNAMGWYRQAPGKERELVAAISWRAGSTYYADSVKGRFTISRDNAKNTVYLQMNSLKPEDTAVYYCNAVERYWDYGYWGQGTQVTVSS
polyreactivity (PSR sort gate): low polyreactivity

QVQLVESGGGLVQAGGSLRLSCAASGFIFAYNIIGWSRHAPGTERELVADISGTGSTNYADSVKGRFTISRDNAKNTVYLQMNSLKPEDTAVYYCAAAKFDVSFWLYFWGQGTQVTVSS
polyreactivity (PSR sort gate): low polyreactivity

QVQLVESGGGLVQAGGSLRLSCAASGSILKYYAMGWYRQAPGKERELVAAISRSGGSTYYADSVKGRFTISRDNAKITVYLQMTSLKPEDTAVYYCAAYYNLPYHGSDYWGQGTQVTVSS
polyreactivity (PSR sort gate): high polyreactivity

QVQHVESRGGLLQAGGSLRLSCAASGRTLSFYGMGWYRQPPGKERELVAAISSSGSRTYYADSVKGRFTISRDNAKNTVYLQMNSLKPEHTAVYYCNALRIYHHYEYDYWGQGTQVTVSS
polyreactivity (PSR sort gate): high polyreactivity

QVQLVESGGGLVQAGGSLRLSCAASGRTFSRYAMGWYRQAPGKERELVAAISRSGGITYYADSVKGRFTISRDYAKNTVYLQMNSLKPEDTAVYYCAKVYPRVGYDYWGQGTQVTVSS
polyreactivity (PSR sort gate): high polyreactivity

QVQLVESGGGLVQAGGSLRLSCAASGSTFQLYAMGWYRQAPGKERELVAAISGIGDSTYYADSVKGRFTISRDNAKYTVYLQMNSLKPEDTAVYYCAREFCDGLSGKFDYWGQGTQVNVSS
polyreactivity (PSR sort gate): low polyreactivity

QVQLVESGGGLVQAGGSLRLSCAASGLTFFNYAMGWNRQAPGKERELVASITSGGSTNYADSVKGRFTISRDNAKNTVYLQMNSLNPEDTAVYYCAARYPYRTYKLSHSYARPYGYWGQGTQVTVSS
polyreactivity (PSR sort gate): high polyreactivity

QVQLVESGGGLVQAGGSLRLSCATSGFTFGWNYMGWYRQAPGKERELVAAITWSGGSTYYADSVKGRFTISRDNAKNTVYLQMNSLKPEDTAVYYCAAVVSDYVWRYEYWGQGSQVTVSS
polyreactivity (PSR sort gate): low polyreactivity

QVQLVESGGGLVQAGGSLRLSCAASGSIFYDNAMGWYRQAPGKERELVATIRGGGNTYYADSVKGRFTISRDNAKNTVYLQMNSLKPEDTAVYYCAKQSDFPGVPLVYGVYGYDYWGQGTQVTVSS
polyreactivity (PSR sort gate): low polyreactivity

QVQLVESGGGLVQAGGSLRLSCAASGFTFKRNGMGWYRQAPGKERELVAAISSSGGNTYYADSVKGRFTISRDNAKNTVYLQMNSLKPEDTAVYDCAAASRYFDRDYWGQGTQVTVSS
polyreactivity (PSR sort gate): high polyreactivity

QVQLVESGGGLVQAGGSLRLSCAASGLTFDQYVMGWYRQAPGKERELVAAISRRGGGTYYADSVKGRFTISRDNAKNTVYLQMNSLKPEDTAVYYCNTDQAWRSWRGNYPFLTGNYWGQGTQVTVSS
polyreactivity (PSR sort gate): high polyreactivity

QVQLVESGGGLVQAGGSLRLSCAASGRTFGRYTMGWYRQAPGKERELVAAITGRGGSTFYADSVKGRFTISRDNAKNTVYLQMNSLKPEDTAVYYCAARRTSIKDQFYYWGQGTQVTVSS
polyreactivity (PSR sort gate): high polyreactivity

QVQLVESRGGLVQAGGSLLLSCAASGIIFRYYTMGWYRQAPGKERELVAAIERSGGNTYYADSVKGRFTISRDNAKNTVYLQMNSLKPEDTAVYYCAARYATWYFRRGRKTSDYDYWGQGTQVTVSS
polyreactivity (PSR sort gate): high polyreactivity

QVQLVESGGGLVQAGGSLRLSCAASGSSFGGYAMGWYRQAPGKERELVARITDRGGSTDYADSVKGRFTISRDNAKNTVYLQKNSLKPEDTAGSYCAKRGDRYEKRPRDYWGQGTQVTVSS
polyreactivity (PSR sort gate): low polyreactivity

QDQLVESGGGLVQARGSLRLSCASSGSICDHYVMGWYRQAPGKERELVAAITSGDRTNYADSVKGRFTISRDKAKNTVYLQMNSLTPEDTEGYYCNADYQSYFYYTTWYYDYDYWGKGTQVTVSS
polyreactivity (PSR sort gate): low polyreactivity

QDQLVESGGGLVQAGGRLRLSCAASGRIIRTYARGWDRQAPGKERELVAAITNGDSTNYADSVMGRFTMSRDNAKNTVYLQMNSLKPEDTAVYYCAVGAVVPGRRRRTYYYWGQGTQVTVSS
polyreactivity (PSR sort gate): high polyreactivity

QVQLAETGGGLVQAGGSLRLSCAASGSTFSVYAMGWYRQSPGKERELVATIPRGGSTYADSVKGRLTISRDNAKNTVYLQMNSLKPEDTAVYYCAADAYVSSQPMDYWGQGTQVTVSS
polyreactivity (PSR sort gate): high polyreactivity

QVQLVESGGGLVQAGGSLRLSCAASGSTFLGNVMGWYRQAPGKERELVAAITSTGGNTYYADSVKGRFTISRDNAKNTVYLQMNSLKPEDTAVYYCAKKYVWTHNYWGQGTQVTVSS
polyreactivity (PSR sort gate): low polyreactivity

QVQLVESGGGLVQAGGRLRLSCASSGIIFRYNAMGWYRQAPGKERELVAAISSSGTTNYADSVKGRFTISRDNAKNTVYLQMNSLKPEDTAVYYCAARRSYARRFKNSMEYWGQGTQVTVSS
polyreactivity (PSR sort gate): high polyreactivity

QVQLQDSGGGLVQAGGSLRLSCAASGSISIYGYMGWYRQAPGNERELVAAITAGGSTYYADSVKGRFTISRDNAKNTVYLLMKSLKPEDTAVYYCAPYEQRVYDLHYWGQGTQVTVSS
polyreactivity (PSR sort gate): high polyreactivity

QVQLVESGGGLVQAGGSLRISCAASGLTFDRYAMGWYRQAPGKERELVAAISGSGSSTYYADSAKGRFTISRDNAKNTVYLQMNSLKPEDTAVYYCAADRDLGYDTRYNYWGQGTQVTVSS
polyreactivity (PSR sort gate): low polyreactivity

QVQLVESGGGLVQAGGSLRLSCAASGSIFGYNAMGWYRQAPGKERELVATISSGGSTNYADSVKGRFTISRDNAKNTVYLQMNSLKPEDTAVYYCAKEYGSIIPYDYWGQGTQVTVSS
polyreactivity (PSR sort gate): low polyreactivity

QVQLVESGGGLVQAGGSLRLSCAASGSIFSSYAMVWYRQAPGKERELVAAIDGSGGSTYADSVKGRFTISRDHAKNTVYLQMNSLKPEDTAVYYCAADSYSGRYYWWEYDYWGQGTQVTVSS
polyreactivity (PSR sort gate): low polyreactivity

QVQLVESGGGLVQAGGSLRLSCAASGRIFSKNAMGWYRKAPGKERELVAAISWSGGSTYYADSVKGRFTISRDNAKNTVYLQMNSLKPEDTAVYYCAADSPRYGGYGYWGQGTQVTVSS
polyreactivity (PSR sort gate): low polyreactivity

QVQLVESGGGLVQAGGSLRLTCAASGFIFSLNAMGWYRQAPGKERELVAAISRCGVRTYYADSVKGRFSISRDNAKNTVYLQMNSLKPEDTAVYYCATAGPYYYYSGPQYDYWGQGTHVTVSS
polyreactivity (PSR sort gate): high polyreactivity

QVQLVESGGGLVQAGGRLRLSCAASGSTFAGNAMGWYRQAPGKERELVAAIDSSTGSTYYADSVKGRFTISRDNAKNTVYLQMNSLKAEDTAVYYCNKTSFLVKLDYWGQGTQVTVSS
polyreactivity (PSR sort gate): low polyreactivity

QVQLVESGGGLVQAGGSLRLSCAASGRIFSRNAMGWYRQAPGKERELVAAISRRGGSTSYADSVKGRFTISRDNAMNTVYLQMNSLKPEDTAVYYCAAEDEYYCTRGYWYSRYDYWGQGTQVTVSS
polyreactivity (PSR sort gate): high polyreactivity

QVQIGESGGGLVQAGGSLRLSCAASGRTFGLYAMGWYRQAPGKERELVAAITISGGITHYADSVKGRFTISRDIAKNSVYLQMNSLKPEDTAVYYCAAEPPGFRTSGVGYWGQGTQVTVSS
polyreactivity (PSR sort gate): low polyreactivity

QVQLVESGGGLVQAGGSLRISCAASGSTLRRYAMGWYRQAPGKERELVAAISGSGDSTYYADSVKGRFTISRDNAKNTVYLQMNSLKPEDTAVYYCNAVYAFNGYDYWGQGTQVTVSS
polyreactivity (PSR sort gate): low polyreactivity

QVQLVESGGGLVQAGGSLRLSCAASGYTFYLYAMGWYRQAPGKESELVAAISTNGGRTYYADSVKGRFTISRDNAKNTVYLQMNSLKPEDTAVYYCAVRSRGTAPQYYYWGQGTQVTVSS
polyreactivity (PSR sort gate): high polyreactivity

QVQHVESGGGLVQAGGSLRLSCAASGSTFKYYAMGWSRQAPGKERELVAAISLSGGRTSYADSVKGRFTISRDNAKNTVYLQMNSLKPVDTAVYYCAAASYFPRFNYWGQGTQVTVSS
polyreactivity (PSR sort gate): high polyreactivity

QVQLVESGGGLVQAGGSLRLSCAASGFTFYTNAMGWYRQAPGKERELVAGINSGSSTYYADSVKGRFTISRDNAKNTVYLQMNSLKPEDTAVYYCAARARRRYYYWGQGTQVTVSS
polyreactivity (PSR sort gate): high polyreactivity

QVQLVESGGGLVQAGGSLRLSCAASGSTLSKNAMGWYRQAPGKERELVAAMTRRGGSTSYADSVKGRFTMSRDYAKNTVYLQMNSLKPEDTAVYYCNAVSKYDYGYWGQGTQVTVSS
polyreactivity (PSR sort gate): high polyreactivity

QVQLVESGGGLVQAGGSLRLSCAASGRTFGYYAMGWYRQAPGKEREFVAAISHSAGSTSYADSVKGRFTISRDNAKNTVYLQMNSLKPEDTAVYYCAADNPWYEMDYWGQGTQVTVSS
polyreactivity (PSR sort gate): low polyreactivity

QVQLVESGGGLVQAGGSLRLSCAASGGTFFGYAMGWYRQAPGKERELVAAIRWSDGRTYYADSVKGRFTISRDNAKNTVYLQMNSLKPEDTAVYDCNADDARLFDYWGQGTQVTVSS
polyreactivity (PSR sort gate): low polyreactivity

QVQLVESGGGLVQAGGSLRLSSAASGRIFFGNTMGWYRQAPGKERELVATIRKIGGRTYYADSVKGRFTISRDNAKNTVYLQMNSLKPEDTAVYYCATDFAPSYYPDRFDYWGQGTQVTVSS
polyreactivity (PSR sort gate): low polyreactivity

QVQLVESGGGLVQAGGSLRLSCAASGRIFYYAMGWYRQAPGKERELVASITWSGGSTYYADSVKGRFTISRDNAKNTVYLQMNSLKPEDTAVYYCNADDLYTWYVVYNYWGQGTQVTVSS
polyreactivity (PSR sort gate): low polyreactivity

QVQLVESGGGLVQAGGSLRLSCAASGLTFRKNAMGWYRQAPGKERELVAGISSGGSTYYADSVKGRFTISRDNAKNTVYLQMNSLKPEDTAVYYCGANALRTMYYWGQGTQVNVSS
polyreactivity (PSR sort gate): high polyreactivity
